Data as given in the supplement of paper PMC7125110.
± gives the standard error. For some of these results: Fewer inactive variants are shown than the library holds.

B1: glmS ribozyme (parent)
chain: AUAAAAGCGCCAGAACUACAGAAAUGUAGUUGACGAGGAGGAGGUUUAUCGAAUUUUCGGCGGAUGCCUCCAAA

Legend:
Conditions in all cases: with glucosamine-6-phosphate
glucosamine-6-phosphate [1] = variants of: B1; assay: kcat; higher = faster cleavage; RNA array
Method in brief: (§1)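 Tiles of sequenced MiSeq chips were imaged over ~14 h at 37 °C. On them, barcoded ribozyme variants had been transcribed in situ by E. coli RNA polymerase and were tracked via a hybridised Cy3 probe while glucosamine-6-phosphate (40 μM to 10 mM) in HEPES/KCl/Mg(OAc)2 buffer flowed in. Per-tile medians, normalised to baseline and to non-cleaving reference variants, were fit to one- or two-exponential decays for kobs, and weighted Michaelis–Menten fits gave kcat and KM.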

glucosamine-6-phosphate [2] = variants of: B1; assay: self-cleavage kobs at 40 uM GlcN6P; higher = faster cleavage; RNA array
Method in brief: as §1

glucosamine-6-phosphate [3] = variants of: B1; assay: self-cleavage kobs at 160 uM GlcN6P; higher = faster cleavage; RNA array
Method in brief: as §1

glucosamine-6-phosphate [4] = variants of: B1; assay: self-cleavage kobs at 640 uM GlcN6P; higher = faster cleavage; RNA array
Method in brief: as §1

glucosamine-6-phosphate [5] = variants of: B1; assay: self-cleavage kobs at 10000 uM GlcN6P; higher = faster cleavage; RNA array
Method in brief: as §1

glucosamine-6-phosphate [6] = variants of: B1; assay: self-cleavage kobs at 2500 uM GlcN6P; higher = faster cleavage; RNA array
Method in brief: as §1

glucosamine-6-phosphate [7] = variants of: B1; assay: KM; higher = weaker cofactor use; RNA array
Method in brief: as §1

| Variant | kcat (glucosamine-6-phosphate [1]) [s⁻¹] | self-cleavage kobs at 40 uM GlcN6P (glucosamine-6-phosphate [2]) [s⁻¹] | self-cleavage kobs at 160 uM GlcN6P (glucosamine-6-phosphate [3]) [s⁻¹] | self-cleavage kobs at 640 uM GlcN6P (glucosamine-6-phosphate [4]) [s⁻¹] | self-cleavage kobs at 10000 uM GlcN6P (glucosamine-6-phosphate [5]) [s⁻¹] | self-cleavage kobs at 2500 uM GlcN6P (glucosamine-6-phosphate [6]) [s⁻¹] | KM (glucosamine-6-phosphate [7]) [µM] |
| --- | --- | --- | --- | --- | --- | --- | --- |
| C8A C10A G38A C50G | 5.64e-05 ± 2.2e-05 | 3.68e-05 ± 1.4e-05 | 8.75e-05 ± 1.8e-05 | 9.23e-05 ± 1.7e-05 | 3.67e-05 ± 1e-05 |  |  |
| C10U A52U C68G | 0.000101 ± 4.6e-05 |  |  |  |  | 6.27e-05 ± 2.5e-05 |  |
| C10G A12U | 8.15e-05 ± 3.2e-05 |  |  |  |  |  |  |
| A6U A53U | 0.000209 ± 3.5e-05 |  |  |  | 0.000159 ± 2.3e-05 | 0.000114 ± 1.6e-05 | 2570 ± 1100 |
| A6U A53G | 0.000783 ± 0.00011 |  |  | 5.15e-05 ± 9e-06 | 0.000404 ± 8.1e-05 | 0.000178 ± 2.2e-05 | 8850 ± 1500 |
| A6G A53C U54A | 5.34e-05 ± 9e-06 | < 1e-05 | < 1e-05 |  | 4.91e-05 ± 9.2e-06 | 5.76e-05 ± 1.9e-05 |  |
| A6U U54G | 0.000293 ± 3e-05 |  |  | 3.62e-05 ± 8.4e-06 | 0.000204 ± 2.5e-05 | 0.000122 ± 1.5e-05 | 3960 ± 740 |
| G7A A36U A39C C68A C71G | 1e-05 ± 4e-06 |  |  |  |  |  |  |
| C11A A15U U65G C71U | < 1e-05 |  |  |  |  |  |  |
| C10U G59U | 2.6e-05 ± 1.8e-06 |  |  |  | 2.16e-05 ± 1.1e-05 |  | 2000 ± 700 |
| A6U U55C | 0.000167 ± 2.1e-06 |  |  | 5.6e-05 ± 1.6e-05 | 0.000148 ± 2.5e-05 | 0.000112 ± 1.5e-05 | 1250 ± 45 |
| C11A C70A | 2.97e-05 ± 1.1e-05 |  |  | 4.96e-05 ± 1.9e-05 |  |  |  |
| C11A C70U | 0.000155 ± 1e-05 | 2.69e-05 ± 1e-05 | 6.69e-05 ± 1.4e-05 | 0.00011 ± 1.2e-05 | 0.000145 ± 9.7e-06 | 0.000168 ± 1.4e-05 | 210 ± 71 |
| G7U G60A | < 1e-05 |  |  | < 1e-05 | < 1e-05 | < 1e-05 |  |
| G9C C61G | 0.00838 ± 0.0021 | 9.12e-05 ± 1.6e-05 | 0.000309 ± 5.7e-05 | 0.000828 ± 0.00017 | 0.00575 ± 0.00085 | 0.00371 ± 0.00066 | 4330 ± 1400 |
| G7C G37C | < 1e-05 | < 1e-05 |  |  | < 1e-05 | < 1e-05 |  |
| G7A A39G | 0.000288 ± 6.2e-05 |  | < 1e-05 |  | 2.51e-05 ± 7.3e-06 |  |  |
| C10U U55C | 3.56e-05 ± 9.4e-06 | < 1e-05 |  |  | 1.93e-05 ± 9e-06 |  |  |
| C10U U55A | 1.86e-05 ± 2.2e-06 |  |  |  | 1.77e-05 ± 7.8e-06 |  |  |

| Variant | kcat (glucosamine-6-phosphate [1]) [s⁻¹] | self-cleavage kobs at 40 uM GlcN6P (glucosamine-6-phosphate [2]) [s⁻¹] | self-cleavage kobs at 160 uM GlcN6P (glucosamine-6-phosphate [3]) [s⁻¹] | self-cleavage kobs at 640 uM GlcN6P (glucosamine-6-phosphate [4]) [s⁻¹] | self-cleavage kobs at 10000 uM GlcN6P (glucosamine-6-phosphate [5]) [s⁻¹] | self-cleavage kobs at 2500 uM GlcN6P (glucosamine-6-phosphate [6]) [s⁻¹] | KM (glucosamine-6-phosphate [7]) [µM] |
| --- | --- | --- | --- | --- | --- | --- | --- |
| A6G A15G | 0.000647 ± 5.3e-05 |  | 3.49e-05 ± 1.1e-05 | 0.000131 ± 1.7e-05 | 0.000514 ± 5.4e-05 | 0.000324 ± 4.3e-05 | 2540 ± 370 |
| A6G U45A | 0.000591 ± 0.00015 |  |  |  | 0.000455 ± 8.7e-05 | 0.000454 ± 0.00011 |  |
| C10U A39U | 1.59e-05 ± 5e-07 | < 1e-05 | < 1e-05 | < 1e-05 |  |  | 6310 ± 460 |
| A6G A39G | 0.00207 ± 0.0008 |  | 6.4e-05 ± 1.4e-05 | 0.000144 ± 2.7e-05 | 0.00121 ± 0.00015 | 0.000791 ± 0.0001 |  |
| C8U C67A | < 1e-05 |  |  | < 1e-05 |  |  |  |
| C10A G51U G63C | 1.02e-05 ± 4.6e-07 |  |  |  |  | < 1e-05 | 731 ± 360 |
| C11A G60A | < 1e-05 |  |  |  |  |  |  |
| C11A A52U C67G | 2.85e-05 ± 4.6e-06 |  |  |  |  |  |  |
| A6U G59A | < 1e-05 | < 1e-05 |  | < 1e-05 |  |  |  |
| G9A A48G G51A G63A | 1.15e-05 ± 4.5e-06 |  |  |  |  |  |  |
| A5U | 0.0156 ± 0.0027 | 0.000961 ± 0.00015 | 0.00247 ± 0.00049 | 0.00869 ± 0.0012 | 0.0129 ± 0.003 | 0.0143 ± 0.0042 | 661 ± 170 |
| G9A | 3.95e-05 ± 2.5e-06 | < 1e-05 | < 1e-05 |  | 2.61e-05 ± 1.5e-06 | 1.33e-05 ± 3e-06 | 5140 ± 880 |
| A6C C71A | 2.27e-05 ± 4.2e-07 |  |  |  | 2.19e-05 ± 1.1e-05 |  | 205 ± 38 |
| A6C C71G | 1.2e-05 ± 1.5e-06 | < 1e-05 |  |  |  |  |  |
| C11A C67U | 4.14e-05 ± 2.5e-06 |  |  | 3.1e-05 ± 1.4e-05 | 4.17e-05 ± 6.9e-06 | 3.53e-05 ± 1e-05 |  |
| G7U G13A | < 1e-05 | < 1e-05 |  |  |  | < 1e-05 |  |
| A6G A12C | 0.000313 ± 8.2e-05 |  |  |  | 0.000159 ± 1.7e-05 | 6.08e-05 ± 3e-05 |  |
| A6G U69A | < 1e-05 |  | < 1e-05 |  | < 1e-05 |  |  |
| A6G C50G C68U | 0.000115 ± 2.9e-05 | 5.04e-05 ± 2.1e-05 | 9.16e-05 ± 2.3e-05 | 0.000189 ± 4.8e-05 | 7.92e-05 ± 2.5e-05 | 0.000173 ± 4.6e-05 |  |
